In PMC6166713:

How the values were obtained:
GST-WASP(201–254) = GST-WASP(201–254) (UniProt P42768); experiment: scintillation proximity assay (SPA); 5 nM GST-WASP variant immobilised on protein A SPA fluoromicrospheres via an anti-GST antibody; varying concentrations of [3H]GTP·Cdc42; direct binding isotherm; apparent Kd; low-salt buffer
GST-WASP(201–321) F271A = GST-WASP(201–321) F271A (UniProt P42768); experiment: as above
GST-WASP(201–321) G251A = GST-WASP(201–321) G251A (UniProt P42768); experiment: as above
GST-WASP(201–321) H246A = GST-WASP(201–321) H246A (UniProt P42768); experiment: as above
GST-WASP(201–321) H249A = GST-WASP(201–321) H249A (UniProt P42768); experiment: as above
GST-WASP(201–321) I233A = GST-WASP(201–321) I233A (UniProt P42768); experiment: as above
GST-WASP(201–321) K235A = GST-WASP(201–321) K235A (UniProt P42768); experiment: as above
GST-WASP(201–321) L267A = GST-WASP(201–321) L267A (UniProt P42768); experiment: as above
GST-WASP(201–321) P241A = GST-WASP(201–321) P241A (UniProt P42768); experiment: as above
GST-WASP(201–321) S242A = GST-WASP(201–321) S242A (UniProt P42768); experiment: as above
GST-WASP(201–321) V250A = GST-WASP(201–321) V250A (UniProt P42768); experiment: as above
GST-WASP(201–321) W252A = GST-WASP(201–321) W252A (UniProt P42768); experiment: as above
[1] = target: GST-WASP(201–321) K225A/R227A (UniProt P42768); experiment: BLI; Octet Red; GST-WASP variants loaded on anti-GST sensors (10 μg/ml), dipped into a dilution range of Cdc42·GMPPNP; 50 mM Tris-HCl pH 7.5, 150 mM NaCl, 1 mM MgCl2, 0.02% Tween 20, 0.1% BSA, 0.05% sodium azide, 25 °C; GST-alone sensors subtracted
GST-WASP(201–321) K226A = GST-WASP(201–321) K226A (UniProt P42768); experiment: as above
[2] = target: GST-WASP(201–321) K226A/R227A (UniProt P42768); experiment: as above
[3] = target: GST-WASP(201–321) K231A/K232A (UniProt P42768); experiment: as above
GST-WASP(201–321) R227A = GST-WASP(201–321) R227A (UniProt P42768); experiment: as above

Question: What does the source list for “Cdc42 Δ7 Q61L (from UniProt P60953 1-191) (natural protein)”?
Answer: Kd (GST-WASP(201–254)): 31.8 nM; Kd (GST-WASP(201–321) F271A): 5 nM; Kd (GST-WASP(201–321) G251A): 5.2 nM; Kd (GST-WASP(201–321) H246A): 42.3 nM; Kd (GST-WASP(201–321) H249A): 43.1 nM; Kd (GST-WASP(201–321) I233A): 26.4 nM; Kd (GST-WASP(201–321) K235A): 8 nM; Kd (GST-WASP(201–321) L267A): 3.2 nM; Kd (GST-WASP(201–321) P241A): 38.3 nM; Kd (GST-WASP(201–321) S242A): 6.4 nM; Kd (GST-WASP(201–321) V250A): 10.1 nM; Kd (GST-WASP(201–321) W252A): 9.6 nM; Kd [1]: 81.5 nM; koff [1]: 0.0371 s⁻¹; kon [1]: 456000 M⁻¹ s⁻¹; Kd (GST-WASP(201–321) K226A): 54.4 nM; koff (GST-WASP(201–321) K226A): 0.0338 s⁻¹; kon (GST-WASP(201–321) K226A): 676000 M⁻¹ s⁻¹; Kd [2]: 74.8 nM; koff [2]: 0.0372 s⁻¹; kon [2]: 497000 M⁻¹ s⁻¹; Kd [3]: 178 nM; koff [3]: 0.0639 s⁻¹; kon [3]: 368000 M⁻¹ s⁻¹; Kd (GST-WASP(201–321) R227A): 49 nM; koff (GST-WASP(201–321) R227A): 0.0281 s⁻¹; kon (GST-WASP(201–321) R227A): 630000 M⁻¹ s⁻¹
